Experiments:
[1] = substrate: O=[N+]([O-])c1ccccc1O[C@@H]1O[C@H](CO)[C@H](O)[C@H](O)[C@H]1O; experiment: o-nitrophenol release, A420; type: biochemical, Bifidobacterium breve; details: 0.1 M sodium acetate pH 6.5, 40 °C, unit mM, not in table
Excerpt: o-nitrophenol release, A420 on BgaB

[2] = substrate: O=[N+]([O-])c1ccccc1O[C@@H]1O[C@H](CO)[C@H](O)[C@H](O)[C@H]1O; experiment: o-nitrophenol release, A420; type: biochemical, Bifidobacterium breve; details: 0.1 M sodium acetate pH 6.5, 40 °C, unit mM, not in table; remark: listed apart in the source
Excerpt: o-nitrophenol release, A420 on BgaA

Protein	Km [1] [mM]	Km [2] [mM]
BgaB (Bifidobacterium breve UCC2003) (protein, His6-tagged, expressed in Lactococcus lactis (pNZ8150), Ni-purified; trimer) MEHREFKWPQPLAGGKPRIWYGGDYNPDQWPEEVWDEDVALMQKAGVNLVSVAIFSWAKLEPEEGVYDFDWLDRVIDKLGKAGIAVDLASGTASPPMWMTQAHPEILWVDYRGDVCQPGARQHWRATSPVFLDYALNLCRKMAEHYKDNPYVVSWHVSNEYGCHNRFDYSEDAERAFQKWCEKKYGTIDAVNDAWGTAFWAQRMNNFSEIIPPRFIGDGNFMNPGKLLDWKRFSSDALLDFYKAERDALLEIAPKPQTTNFMVSAGGAGIDYDKWGYDVDFVSNDHYFTPGEAHFDELAYSASLCDGIARKNPWFLMEHSSSAVNWRPINYRVEPGELVRDSLAHLAMGADAICYFQWRQSKAGAEKWHSSMVPHAGPDSQIFRDVCELGADLNKLADEGLLSTKLVKSKVAVVFDYESQWATEHTATPTQEVRHWTEPLAWFRALADNGLTADVVPVRGPWDEYEAVVLPSLTILSEETTRRVREYVANGGKLFVTYYTGLVDDKDHVWLGGYPGSIRDVVGVRVEEFAPMGNDFPGAMDHLDLDNGTVAHDFADVITSVADTAHVVASFKADKWTGFDGAPAITINDFGDGKAAYVGARLGREGLAKSLPALLEELGIETSAEDDRGEVLRVERADETGENHFVFLFNRTHDVAIVDVDGEPLVASLAQVNESEHTAAIQPNGVLVVKL	8.607	–
BgaA (Bifidobacterium breve UCC2003) (protein, His6-tagged, expressed in Lactococcus lactis (pNZ8150), Ni-purified; dimer) MTNLQSAQQFSQAWLTDPRVFAVNRLAAHSSHKFYDHAPQCGEAMDLKQSLDGQWRVQMVDLADLADNELAEAAFAQPGYDAAGFSPIEVPSALETKGFLNHQYVNQQYPWSGHESPVAPDVPKHNHVALYRHEFSLEPKAAAVLEANKTAADDAAKRRVTLIFQGAATAIVVWLNGAFIGYAEDSFTPSEFDVTDVLRDGVNTLAVACFEFSSASWLEDQDFWRLHGIFRSVELEAQPLVHVNDLRVLADYDHTTGEGSLDVVALVRNAGTAAAVAATVLDAAGNTVWHSKLTAGADAETLTVKANVGKVNPWSAEEPTLYTLQVVATDAAGQVIEAALQRIGFRHFAIEDGLMKLNGKRIVFKGVDRHEFDARTGRTIAEADMIEDIHSFKRLNINAVRTSHYPNETRWYELCDEYGIYVLDETNLETHGSWTDPGDVFQPARAIPGSKDEWRAACVDRTASMVRRDYNHPSVVIWSLGNEAFGGDVFYSMRDFVHENDPFRPVHYEGTFNDPEFSAATDIMSRMYAKPDEIVKLYLGEDGKKPYISCEYSHSMGNSTGGLHLYTELERYPLYQGGFIWDYVDQALWQDCGDGTERLAYGGDFEDRPNDYEFSGDGVMFADRTPSPKAQEVKQLYANVKLVPDESGVTITNDNLFISTASSLFTARVLVDGVECWHANYRFDVPAGETVREPIAFPKVTDLVALSGSAEVTYEVDQRLAEATDWAPAGYELTFGQYVAAVSFDDGAADAVVAGDAEVAADGFNAGIHTDFGEVLLSKTQGGMVSFKRDGREMVIRRPNLTTFRALTDNDRGNGSGFERAQWMAAGRYARVTGTSVEETADGKGLKATYSYELADAKHTPVTVHYEVDAALRVHLTVKYPGEADAATLPAFGLEWILPKQYDRLRFYGLGPEETYADRLHGAKLGVFSRTAAEDCAPYLLPQETGNHEQVRWAEITDEYGHGMRVTAAGGTRFATSLLPYSSLMLEDALHQNELPKPRHTFLRLLAAQMGVGGDDTWGAPVHDEFQVPADQPLKLDVTLELI	–	10.8
